B1: ChATG8 promoter probe (dsDNA)
DNA 1: GGAGAGCGTGAAGGAGAGAGACGGGATGAGTCAAAGTACCCAGGTAGCCAGGTCATGGGA
DNA 2: TCCCATGACCTGGCTACCTGGGTACTTTGACTCATCCCGTCTCTCTCCTTCACGCTCTCC
B2: ChATG9 promoter probe (dsDNA)
DNA 1: GCGGCGCGTCACCTGCATGAGTCCCATGTCGATGAGGCGCT
DNA 2: AGCGCCTCATCGACATGGGACTCATGCAGGTGACGCGCCGC
B3: ChARG4 promoter probe (dsDNA)
DNA 1: CATTGGCGTTTGGGACTGAATTACAATGAGTAATGAAATAACTCACACCACAAAGCAGTA
DNA 2: TACTGCTTTGTGGTGTGAGTTATTTCATTACTCATTGTAATTCAGTCCCAAACGCCAATG
B4: ChATG5 promoter probe (dsDNA)
DNA 1: CAGCTATGTTGCGTTAGTAAGTCACCCATCTACGCTGTCGC
DNA 2: GCGACAGCGTAGATGGGTGACTTACTAACGCAACATAGCTG
B5: ChARG1 promoter probe (dsDNA)
DNA 1: AAGACAGTGGTGGAGATCAAGTTGGATGAGTAACTTGGCGCTGCACTCGATTCGCGTGTT
DNA 2: CCAACTTGATCTCCACCACTGTCTT
B6: ChATG7 promoter probe (dsDNA)
DNA 1: TCCCAAATGTCGGTCGTGACCCATCGTTCCCTCCATCTCA
DNA 2: TGAGATGGAGGGAACGATGGGTCACGACCGACATTTGGGA

Legend:
[1] = molecular target: T1, ChCpc1 (Cochliobolus heterostrophus C4 (Tox1+, …, UniProt M2T2C6 1-465)); experiment: EMSA; Light Shift Chemiluminescent EMSA Kit (Beyotime), 20 min at 25°C; 6.5% polyacrylamide gel, 0.5x TBE; binding buffer, salt and pH not stated; settings: protein: recombinant; tags: His (pET-32a); chain copies: 2; label: biotin (on forward strand); blunt
T1 sequence: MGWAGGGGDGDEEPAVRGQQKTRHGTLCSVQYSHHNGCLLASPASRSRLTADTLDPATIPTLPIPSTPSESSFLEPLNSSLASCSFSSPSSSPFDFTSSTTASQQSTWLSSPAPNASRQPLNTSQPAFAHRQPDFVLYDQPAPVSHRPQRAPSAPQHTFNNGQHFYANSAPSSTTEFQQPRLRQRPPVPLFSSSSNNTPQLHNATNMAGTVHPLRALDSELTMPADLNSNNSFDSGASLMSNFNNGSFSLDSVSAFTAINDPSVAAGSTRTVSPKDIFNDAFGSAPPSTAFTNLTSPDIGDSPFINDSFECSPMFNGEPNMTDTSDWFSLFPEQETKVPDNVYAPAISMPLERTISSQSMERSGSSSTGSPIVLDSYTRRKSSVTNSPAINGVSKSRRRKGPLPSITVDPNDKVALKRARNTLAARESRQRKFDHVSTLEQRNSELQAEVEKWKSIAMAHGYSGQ

[2] = molecular target: T2, ChAtf1 (Cochliobolus heterostrophus C4 (Tox1+, …, UniProt M2TIN4 1-567)); experiment: EMSA; ChAtf1 alone; Light Shift Chemiluminescent EMSA Kit (Beyotime), 20 min at 25°C; 6.5% polyacrylamide gel, 0.5x TBE; binding buffer, salt and pH not stated; settings: protein: recombinant; tags: His (pET32a); chain copies: 2; label: biotin (on forward strand); blunt
T2 sequence: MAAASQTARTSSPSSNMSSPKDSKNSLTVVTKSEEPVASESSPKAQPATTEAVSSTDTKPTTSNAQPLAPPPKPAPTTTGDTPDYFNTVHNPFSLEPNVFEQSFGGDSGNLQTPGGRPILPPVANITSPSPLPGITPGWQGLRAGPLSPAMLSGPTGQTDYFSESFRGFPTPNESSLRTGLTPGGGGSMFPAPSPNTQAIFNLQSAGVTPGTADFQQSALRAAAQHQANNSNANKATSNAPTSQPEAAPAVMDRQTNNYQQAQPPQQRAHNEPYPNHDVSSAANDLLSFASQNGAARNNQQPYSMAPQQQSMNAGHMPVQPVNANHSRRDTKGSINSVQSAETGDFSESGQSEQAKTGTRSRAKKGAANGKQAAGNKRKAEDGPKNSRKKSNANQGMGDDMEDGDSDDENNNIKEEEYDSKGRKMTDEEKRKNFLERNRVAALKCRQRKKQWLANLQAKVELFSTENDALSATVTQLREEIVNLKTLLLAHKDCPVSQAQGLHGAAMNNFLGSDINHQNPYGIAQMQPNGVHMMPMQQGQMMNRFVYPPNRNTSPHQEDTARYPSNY

[3] = molecular target: T1, ChCpc1; experiment: EMSA; strongest of the four ATG probes; Light Shift Chemiluminescent EMSA Kit (Beyotime), 20 min at 25°C; 6.5% polyacrylamide gel, 0.5x TBE; binding buffer, salt and pH not stated; settings: protein: recombinant; tags: His (pET-32a); chain copies: 2; label: biotin (on forward strand); blunt
[4] = molecular target: T1, ChCpc1; experiment: EMSA; 100x unlabeled competitor prevents binding; Light Shift Chemiluminescent EMSA Kit (Beyotime), 20 min at 25°C; 6.5% polyacrylamide gel, 0.5x TBE; binding buffer, salt and pH not stated; settings: protein: recombinant, tags: His (pET-32a), chain copies: 2, label: biotin (on forward strand)

Binder	binding result [1]	binding result [2]	also measured
B1	binds	no binding	
B2			binding result [3]: binds
B3		no binding	binding result ([4]; blunt): binds
B4	binds		
B5			binding result ([4]; printed reverse oligo (25 nt) pairs only with nt 1-25 of the 60-nt forward strand, possibly printed incomplete): binds
B6	binds		
